According to patent US20100095387A1 (published 2010):

Experiments:
[1] = target: T1, α3 subunit of the Na+/K+-ATPase, endogenous on mouse cells (cortical neurons, cortical slices, cardiac … (mouse, UniProt Q6PIC6 1-1013)); assay: cell-based or functional assay
[2] = target: T1, α3 subunit of the Na+/K+-ATPase, …; assay: competition against C-Ag20z8 on live cortical neurons, NIH Image analysis of immunofluorescence; competitor C-Ag20z8

B1: C-Ag20z0, 20-kD COOH-terminal fragment of mouse agrin, z0 splice variant (ligand, not shown: small tags and cut ends)
chain: MDPRTYIEYLNAVTESEKALQSNHFELTLRTEATQGWLVLWIGKAAERADYMALAIVDGHLQLSYDLASQPVVLRSTVKVNTNRWLRVRAHREHREGSLQVGNEAPVTSSSPLGATQLDTDGALWLGGLQKLPVGQPLPKAYGTGFVGCLRNVVGHRQLHLLEDAVTKPELRPCPTLNSKLGPEQKLISEEDLNSAVDHHHHHH
- EC50 of c-fos induction (Fos in situ enzyme-linked immunoassay, cortical cultures) [1]: 0.0133 nM
- glutamate-induced Fos expression of agrin-deficient neurons grown 2 d in 5 nM fragment [1]: 2.2 fold

B2: C-Ag20z8, 20-kD COOH-terminal fragment of mouse agrin, z8 splice variant (ligand, not shown: small tags and cut ends)
chain: MDPRTYIEYLNAVTESELTNEIPAEKALQSNHFELTLRTEATQGWLVLWIGKAAERADYMALAIVDGHLQLSYDLASQPVVLRSTVKVNTNRWLRVRAHREHREGSLQVGNEAPVTSSSPLGATQLDTDGALWLGGLQKLPVGQPLPKAYGTGFVGCLRNVVGHRQLHLLEDAVTKPELRPCPTLNSKLGPEQKLISEEDLNSAVDHHHHHH
- EC50 of c-fos induction (Fos in situ enzyme-linked immunoassay, cortical cultures) [1]: 0.0112 nM
- glutamate-induced Fos expression of agrin-deficient neurons grown 2 d in 5 nM fragment [1]: 2.2 fold

B3: C-Ag15, 15-kD COOH-terminal fragment of mouse agrin (37 amino acids deleted from the NH2 terminus of C-Ag20) (ligand, not shown: small tags and cut ends)
chain: MDPWIGKAAERADYMALAIVDGHLQLSYDLASQPVVLRSTVKVNTNRWLRVRAHREHREGSLQVGNEAPVTSSSPLGATQLDTDGALWLGGLQKLPVGQPLPKAYGTGFVGCLRNVVGHRQLHLLEDAVTKPELRPCPTLNSKLGPEQKLISEEDLNSAVDHHHHHH
- IC50 of inhibition of c-fos induction by 50 pM C-Ag95z8 (cortical cultures, single-site competition model) [1]: 64.5 pM

B4: rC-Agy4z8, soluble 95-kD COOH-terminal fragment of rat agrin, y4 z8 (ligand, UniProt P25304-5 1153-1951, looked up)
chain: AATGTTAAMATARATTVSRLPASSVTPRVYPSHTSRPVGRTTAPPTTRRPPTTATNMDRPRTPGHQQPSKSCDSQPCLHGGTCQDQDSGKGFTCSCTAGRGGSVCEKVQPPSMPAFKGHSFLAFPTLRAYHTLRLALEFRALETEGLLLYNGNARGKDFLALALLDGRVQFRFDTGSGPAVLTSLVPVEPGRWHRLELSRHWRQGTLSVDGETPVVGESPSGTDGLNLDTNLYVGGIPEEQVAMVLDRTSVGVGLKGCIRMLDINNQQLELSDWQRAAVQSSGVGECGDHPCLPNPCHGGALCQALEAGMFLCQCPPGRFGPTCADEKSPCQPNPCHGAAPCRVLSSGGAKCECPLGRSGTFCQTVLETAGSRPFLADFNGFSYLELKGLHTFERDLGEKMALEMVFLARGPSGLLLYNGQKTDGKGDFVSLALHNRHLEFCYDLGKGAAVIRSKEPIALGTWVRVFLERNGRKGALQVGDGPRVLGESPKSRKVPHTMLNLKEPLYIGGAPDFSKLARGAAVSSGFSGVIQLVSLRGHQLLTQEHVLRAVDVSPFADHPCTQALGNPCLNGGSCVPREATYECLCPGGFSGLHCEKGLVEKSVGDLETLAFDGRTYIEYLNAVIESPETLDSRALFSEKALQSNHFELSLRTEATQGLVLWIGKAAERADYMALAIVDGHLQLSYDLGSQPVVLRSTVKVNTNRWLRIRAHREHREGSLQVGNEAPVTGSSPLGATQLDTDGALWLGGLQKLPVGQALPKAYGTGFVGCLRDVVVGHRQLHLLEDAVTKPELRPCPTP
notes: domain: soluble 95-kD COOH-terminal fragment; Harvested in medium conditioned by transiently transfected COS-7 cells; concentration only estimated; also called Rat C-Ag4,8; rC-Ag95y4z8
- reduction of labeling (mean pixel intensity) at a 1:1 molar ratio [2]: ~30%
